Patent US20250032543A1 (CHILDREN S HOSPITAL OF PHILADELPHIA, published 2025)

Biological target: T1, recombinant human (rh) CD16A protein conjugated with APC fluorophore (human, UniProt P08637 17-208, APC fluorophore conjugate)
T1 construct: also called APC-tagged rhCD16A
Experiment: 'sandwich' flow cytometry: NB-EBC1 cells incubated with cSN, then stained with APC-conjugated rhCD16A
Description: FIGS. 3A-E. Production and binding characterization of BICEs. (FIG. 3A) Flow cytometry histograms showing His-tag cell surface expression in neuroblastoma cells incubated with concentrated supernatants (cSNs) from CAR constructs (CAR.GPC2, CAR.GPC2-BiCE.GD2 or CAR.GPC2-BICE.CD19) or 1×PBS and then stained with phycoerythrin (PE)-tagged anti-His-tag antibody. Neuroblastoma cells with high (NB-EBC1 and SMS-SAN) and low (SY5Y) GD2 expression were selected. Leukemia (NALM6) cells with high CD19 were utilized as controls. (FIG. 3B) Concentration-dependent binding of CAR.GPC2-BICE.GD2 cSN in GD2-high NB-EBC1 cells. (FIG. 3C) Binding competition assay between FDA-approved anti-GD2 antibody dinutuximab and CAR.GPC2-BiCE.GD2 cSNs. (FIG. 3D) Graphical scheme of the “sandwich” binding assays where GD2-expressing neuroblastoma cells were incubated with bicistronic vector cSNs and then stained with recombinant human (rh) CD16A protein previously conjugated with APC fluorophore. (FIG. 3E) Flow cytometry histograms showing CD16A sdAb APC staining in GD2-positive cells incubated with GPC2.CAR-GD2.BiCE cSN but not with control vector cSN (GPC2.CAR-CD19.BiCE).
Next, to study whether BiCEs might produce a molecular synapsis between GD2-expressing cells and CD16a, a “sandwich” binding assay was developed as illustrated in FIG. 3D. […]

T1 sequence (P08637 17-208 limits assumed): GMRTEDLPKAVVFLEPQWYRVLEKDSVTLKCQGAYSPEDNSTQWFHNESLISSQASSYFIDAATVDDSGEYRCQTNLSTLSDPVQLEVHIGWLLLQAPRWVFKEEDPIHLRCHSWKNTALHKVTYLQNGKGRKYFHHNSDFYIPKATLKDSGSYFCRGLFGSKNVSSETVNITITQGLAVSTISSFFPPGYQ

B1: GD2-targeted bispecific innate immune cell engager (GD2 scFv 14g2a linked to CD16A single-domain antibody sdA1, His-tagged) (bispecific antibody)
chain: DILLTQTPLSLPVSLGDQASISCRSSQSLVHRNGNTYLHWYLQKPGQSPKLLIHKVSNRFSGVPDRFSGSGSGTDFTLKISRVEAEDLGVYFCSQSTHVPPLTFGAGTKLELKGSTSGSGKPGSGEGSTKGEVKLQQSGPSLVEPGASVMISCKASGSSFTGYNMNWVRQNIGKSLEWIGAIDPYYGGTSYNQKFKGRATLTVDKSSSTAYMHLKSLTSEDSAVYYCVSGMEYWGQGTSVTVSSGSTSGSGKPGSGEGSTKGEVQLVESGGGLVQPGGSLRLSCAASGFTFSNYGMSWVRQAPGKGLEWIGSIYYSGSTNYNPSLKSLVTISRDNSKNTLYLQMNSLRAEDTATYYCARESIDYWGQGTLVTVSSHHHHHH
notes: Used as concentrated supernatant (cSN) of HEK 293T cells transfected with the bicistronic GPC2.CAR-GD2.BiCE vector; also called GD2 BiCE; GD2.BiCE
binding result: binds
